For data set [1], the target named is Comparator: GLP1 analogue having the amino acid sequence characteristics of LY2189265 fused to hIgG4 Fc domain.
Data set [2] concerns the target Q-GLP1-hFc.

Chain of Comparator: GLP1 analogue having the amino acid sequence characteristics of LY2189265 fused to hIgG4 Fc domain (chain, as listed by the source): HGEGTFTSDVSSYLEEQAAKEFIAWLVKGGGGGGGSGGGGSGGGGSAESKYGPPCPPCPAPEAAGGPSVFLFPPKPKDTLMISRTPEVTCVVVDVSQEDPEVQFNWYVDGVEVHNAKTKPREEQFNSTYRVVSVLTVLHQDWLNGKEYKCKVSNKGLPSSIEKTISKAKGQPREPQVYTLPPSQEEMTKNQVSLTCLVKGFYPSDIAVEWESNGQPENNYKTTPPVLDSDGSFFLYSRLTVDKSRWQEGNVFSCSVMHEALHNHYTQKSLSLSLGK

B1: recombinant human DPP4 (protein)
chain: SRKTYTLTDYLKNTYRLKLYSLRWISDHEYLYKQENNILVFNAEYGNSSVFLENSTFDEFGHSINDYSISPDGQFILLEYNYVKQWRHSYTASYDIYDLNKRQLITEERIPNNTQWVTWSPVGHKLAYVWNNDIYVKIEPNLPSYRITWTGKEDIIYNGITDWVYEEEVFSAYSALWWSPNGTFLAYAQFNDTEVPLIEYSFYSDESLQYPKTVRVPYPKAGAVNPTVKFFVVNTDSLSSVTNATSIQITAPASMLIGDHYLCDVTWATQERISLQWLRRIQNYSVMDICDYDESSGRWNCLVARQHIEMSTTGWVGRFRPSEPHFTLDGNSFYKIISNEEGYRHICYFQIDKKDCTFITKGTWEVIGIEALTSDYLYYISNEYKGMPGGRNLYKIQLSDYTKVTCLSCELNPERCQYYSVSFSKEAKYYQLRCSGPGLPLYTLHSSVNDKGLRVLEDNSALDKMLQNVQMPSKKLDFIILNETKFWYQMILPPHFDKSKKYPLLLDVYAGPCSQKADTVFRLNWATYLASTENIIVASFDGRGSGYQGDKIMHAINRRLGTFEVEDQIEAARQFSKMGFVDNKRIAIWGWSYGGYVTSMVLGSGSGVFKCGIAVAPVSRWEYYDSVYTERYMGLPTPEDNLDHYRNSTVMSRAENFKQVEYLLIHGTADDNVHFQQSAQISKALVDVGVDFQAMWYTDEDHGIASSTAHQHIYTHMSHFIKQCFSLP
With B1, in data set [1], the “Cleavage % after 4 hours” value was 4% and the “Cleavage % after 72 hours” value was 41%. For the same protein, in data set [2], the “Cleavage % after 4 hours” value amounted to 0% and the “Cleavage % after 72 hours” value stood at 0%.

The values are drawn from US20190091296.
